How the values were obtained:
[1] = biological target: T1, avLOX (Aerococcus viridans L-lactate oxidase) (Aerococcus viridans, UniProt Q44467); assay: stopped-flow anaerobic FMN reduction, […] nm, hyperbolic fit; format: biochemical; conditions: pH 5.5, 20 °C, 50 mM potassium phosphate, read-out: Enzyme / Wild-type avLOX / Reaction pH / 5.5
T1 construct: wild type from Roche (grade 1, lyophilized); Y215 variants from plasmid pLO-1 in E. coli BL21 (DE3), no tag stated; missing residues 1-7 modeled for simulation only
T1 sequence (Q44467 1-374): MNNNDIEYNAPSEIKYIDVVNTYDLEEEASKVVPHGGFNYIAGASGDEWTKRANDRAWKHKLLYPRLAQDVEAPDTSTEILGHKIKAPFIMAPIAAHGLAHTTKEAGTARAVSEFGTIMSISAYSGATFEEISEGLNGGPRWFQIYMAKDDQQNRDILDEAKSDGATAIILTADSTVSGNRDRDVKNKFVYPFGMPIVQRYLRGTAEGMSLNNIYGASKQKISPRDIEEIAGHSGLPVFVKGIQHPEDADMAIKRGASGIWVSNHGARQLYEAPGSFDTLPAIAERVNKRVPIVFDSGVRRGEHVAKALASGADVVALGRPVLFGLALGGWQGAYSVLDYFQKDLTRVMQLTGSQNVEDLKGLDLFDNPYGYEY

[2] = tested on: C[C@H](O)C(=O)O; assay: steady-state initial rates; format: biochemical, Aerococcus viridans; conditions: pH 6.5, 20 °C, air-saturated (250 μM O2), 50 mM potassium phosphate
[3] = tested on: C[C@H](O)C(=O)O; assay: purified protein; conditions: pH 6.5, 20 °C, air-saturated (250 μM O2), 50 mM potassium phosphate
[4] = substrate: C[C@H](O)C(=O)O; assay: purified protein; conditions: pH 6.5, 20 °C, air-saturated (250 μM O2), 50 mM potassium phosphate; remark: listed apart in the source
[5] = biological target: the molecule itself; assay: crystal structure; hanging drop vapor diffusion, 20 °C; 10 mg/mL protein in 50 mM potassium phosphate pH 7.0 mixed with 30% polyethylene glycol, 50 mM Tris-HCl pH 8.0, 50 mM pyruvate; spacegroup P2_(1), 2.6 Å

C[C@H](O)C(=O)O [L-lactate]
Kd [1]: 3 ± 0.4 mM

avLOX (Aerococcus viridans L-lactate oxidase) (Aerococcus viridans ATCC 11563 = CCUG 4311; Y215F)
Km [2]: 130 ± 10 µM
kcat [2]: 22 ± 2 s⁻¹

avLOX (Aerococcus viridans L-lactate oxidase) (Aerococcus viridans ATCC 11563 = CCUG 4311; Y215H)
Km [3]: 520 ± 120 µM

B1: avLOX (Aerococcus viridans L-lactate oxidase) (Aerococcus viridans ATCC 11563 = CCUG 4311) (protein)
chain: MNNNDIEYNAPSEIKYIDVVNTYDLEEEASKVVPHGGFNYIAGASGDEWTKRANDRAWKHKLLYPRLAQDVEAPDTSTEILGHKIKAPFIMAPIAAHGLAHTTKEAGTARAVSEFGTIMSISAYSGATFEEISEGLNGGPRWFQIYMAKDDQQNRDILDEAKSDGATAIILTADSTVSGNRDRDVKNKFVYPFGMPIVQRYLRGTAEGMSLNNIYGASKQKISPRDIEEIAGHSGLPVFVKGIQHPEDADMAIKRGASGIWVSNHGARQLYEAPGSFDTLPAIAERVNKRVPIVFDSGVRRGEHVAKALASGADVVALGRPVLFGLALGGWQGAYSVLDYFQKDLTRVMQLTGSQNVEDLKGLDLFDNPYGYEY
Km [4]: 500 ± 100 µM
kcat [4]: 88 ± 2 s⁻¹

B2: Aerococcus viridans L-lactate oxidase Y215F variant (enzyme)
chain: MNNNDIEYNAPSEIKYIDVVNTYDLEEEASKVVPHGGFNYIAGASGDEWTKRANDRAWKHKLLYPRLAQDVEAPDTSTEILGHKIKAPFIMAPIAAHGLAHTTKEAGTARAVSEFGTIMSISAYSGATFEEISEGLNGGPRWFQIYMAKDDQQNRDILDEAKSDGATAIILTADSTVSGNRDRDVKNKFVYPFGMPIVQRYLRGTAEGMSLNNIFGASKQKISPRDIEEIAGHSGLPVFVKGIQHPEDADMAIKRGASGIWVSNHGARQLYEAPGSFDTLPAIAERVNKRVPIVFDSGVRRGEHVAKALASGADVVALGRPVLFGLALGGWQGAYSVLDYFQKDLTRVMQLTGSQNVEDLKGLDLFDNPYGYEY
notes: also called Y215F avLOX; avLOX Y215F mutant
stoichiometry N [5]: 4

Source: paper PMC4908395, “Conformational flexibility related to enzyme activity: evidence for a dynamic active-site gatekeeper function of Tyr^215 in Aerococcus viridans lactate oxidase” (Scientific Reports, 2016)
